Target: Fes (UniProt P07332)
Experiment: phosphorylation enrichment, bacterial display (enrichment ratio); higher = better substrate or ligand; peptides without Tyr show the background
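Wherever SH2 binding enrichment of the phosphorylated peptide, bacterial display is given: peptide library displayed on the E. coli surface as eCPX fusions, selected cells deep-sequenced, score is each peptide's frequency after selection divided by its frequency in the input.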
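Wherever phosphorylation enrichment, bacterial display is given: 11-residue human phosphosite peptides and single-mutation variants displayed on the E. coli surface, counted by deep sequencing, each peptide's frequency after selection divided by its frequency in the unselected input library; frequency after pTyr selection over input frequency; kinase dosed for 20-30% of maximal phosphorylation in three min.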

Chain of Fes (P07332 whole entry, looked up): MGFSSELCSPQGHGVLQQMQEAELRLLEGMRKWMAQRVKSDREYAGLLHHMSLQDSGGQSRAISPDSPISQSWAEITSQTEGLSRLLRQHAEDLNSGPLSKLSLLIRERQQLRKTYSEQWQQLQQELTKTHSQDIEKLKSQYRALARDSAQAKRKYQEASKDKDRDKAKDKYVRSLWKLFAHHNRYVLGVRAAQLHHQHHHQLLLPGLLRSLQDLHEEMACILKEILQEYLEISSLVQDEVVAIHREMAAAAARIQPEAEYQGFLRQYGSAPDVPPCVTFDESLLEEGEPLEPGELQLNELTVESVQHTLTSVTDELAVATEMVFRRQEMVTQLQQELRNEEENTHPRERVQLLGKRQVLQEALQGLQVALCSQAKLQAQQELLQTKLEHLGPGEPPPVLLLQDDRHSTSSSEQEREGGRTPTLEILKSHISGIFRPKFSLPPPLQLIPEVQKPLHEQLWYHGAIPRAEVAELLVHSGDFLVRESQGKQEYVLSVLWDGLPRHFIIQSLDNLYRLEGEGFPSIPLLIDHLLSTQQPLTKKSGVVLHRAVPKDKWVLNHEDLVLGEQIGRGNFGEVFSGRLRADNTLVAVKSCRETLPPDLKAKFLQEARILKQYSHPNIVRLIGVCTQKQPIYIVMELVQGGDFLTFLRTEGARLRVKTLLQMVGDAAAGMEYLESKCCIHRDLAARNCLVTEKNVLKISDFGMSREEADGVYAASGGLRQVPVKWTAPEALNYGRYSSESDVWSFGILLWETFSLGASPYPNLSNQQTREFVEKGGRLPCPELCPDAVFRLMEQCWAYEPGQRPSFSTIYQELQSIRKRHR

Sequence	phosphorylation enrichment
SAEKAYHEQLS [TUBA1A_Y282]	0.844
SHISGYATLRR [RAPH1_Y1226]	0.753
KCLAVYQAGAR [APOE_Y180_R176C]	0.742
VLTSKHRGGGG [HBA1_Y141_Y141H]	0.396
QTLTDYDTRFY [CSNK2A3_Y131_I133T]	1.25
MKDLTYASLCF [ALOX5_Y446]	1.33
SWSTSYSGFRF [NKAPL_Y91_YF]	1.38
EKRDAYVSCLN [GSR_Y150_R153C]	1.1
ARVANYQRDGP [CAT_Y386]	0.607
GVLKEYGVKVL [CPS1_Y529]	0.642
EADRKYEEVAG [TPM3_Y163_R168G]	1.07
GDAMLYYPSVS [GPR143_Y177_A173D]	0.736
RQNRFYDAKVR [FKBP6_Y188]	0.715
NRKGKYFNVER [ANAPC4_Y469]	0.575
VFAPDFIAGVS [NOB1_Y366_Y366F]	1.02
GIVEDYRPTFF [ACVRL1_Y421_P424T_YF]	1.04
QRIFQYIRSRF [DYRK1B_Y273_Q275R_YF]	1.26

Sequence	phosphorylation enrichment
ILGRFYETGSI [PAX2_Y73_YF]	0.779
GFIISYREEEQ	1.27
IRTIDYRFTVW [IDS_Y497_YF]	1.2
KEAQVYQAFKL [SUCLG2_Y343]	1.05
KDQGIYEDFVE [MYL6_Y86_T85I_YF]	1.49
FSMGCYEISLE [HMGCL_Y198_G203E_YF]	1.53
SRGSSYNSIPK [FLNC_Y2625_S2626N]	0.642
ATHSRYRLNDY [CLDN14_Y233_G232R]	0.735
SIKDKYVTVLF [KCNH2_Y611_A614V_YF]	0.91
ENGPFYASFPP [GDAP2_Y488_T489A_YF]	0.858
ECKLFYSRKEG [PTPN11_Y263_L262F]	1
STSKTYVISQT [RBBP6_Y87_R91Q]	0.694
MVSLFYGTAIF [OR10C1_Y251_L255I]	1.53
RLLVVYPSTQR [HBB_Y36_W38S]	1.75
LGRTVYADCLA [ABCA4_Y2063_L2060R]	2.65
VTRKEYFIFLE [CAMKV_Y95]	1.06

Target: c-Src SH2
Experiment: SH2 binding enrichment of the phosphorylated peptide, bacterial display (enrichment ratio); higher = better substrate or ligand; peptides without Tyr show the background

Sequence	SH2 binding enrichment
SAEKAYHEQLS [TUBA1A_Y282]	0.506
SHISGYATLRR [RAPH1_Y1226]	0.567
KCLAVYQAGAR [APOE_Y180_R176C]	0.677
VLTSKHRGGGG [HBA1_Y141_Y141H]	0.823
QTLTDYDTRFY [CSNK2A3_Y131_I133T]	0.678
MKDLTYASLCF [ALOX5_Y446]	0.411
SWSTSYSGFRF [NKAPL_Y91_YF]	0.774
EKRDAYVSCLN [GSR_Y150_R153C]	0.878
ARVANYQRDGP [CAT_Y386]	0.32
GVLKEYGVKVL [CPS1_Y529]	0.408
EADRKYEEVAG [TPM3_Y163_R168G]	21.4
GDAMLYYPSVS [GPR143_Y177_A173D]	0.773
RQNRFYDAKVR [FKBP6_Y188]	0.441
NRKGKYFNVER [ANAPC4_Y469]	0.299
VFAPDFIAGVS [NOB1_Y366_Y366F]	0.551
GIVEDYRPTFF [ACVRL1_Y421_P424T_YF]	0.447
QRIFQYIRSRF [DYRK1B_Y273_Q275R_YF]	0.521

Sequence	SH2 binding enrichment
ILGRFYETGSI [PAX2_Y73_YF]	1.17
GFIISYREEEQ	0.581
IRTIDYRFTVW [IDS_Y497_YF]	0.528
KEAQVYQAFKL [SUCLG2_Y343]	0.408
KDQGIYEDFVE [MYL6_Y86_T85I_YF]	0.572
FSMGCYEISLE [HMGCL_Y198_G203E_YF]	0.347
SRGSSYNSIPK [FLNC_Y2625_S2626N]	0.559
ATHSRYRLNDY [CLDN14_Y233_G232R]	0.682
SIKDKYVTVLF [KCNH2_Y611_A614V_YF]	0.669
ENGPFYASFPP [GDAP2_Y488_T489A_YF]	0.744
ECKLFYSRKEG [PTPN11_Y263_L262F]	0.436
STSKTYVISQT [RBBP6_Y87_R91Q]	0.418
MVSLFYGTAIF [OR10C1_Y251_L255I]	0.46
RLLVVYPSTQR [HBB_Y36_W38S]	1.47
LGRTVYADCLA [ABCA4_Y2063_L2060R]	1.71
VTRKEYFIFLE [CAMKV_Y95]	1.03

Target: SHP2-C SH2
Experiment: as above

Sequence	SH2 binding enrichment
SAEKAYHEQLS [TUBA1A_Y282]	0.785
SHISGYATLRR [RAPH1_Y1226]	1.65
KCLAVYQAGAR [APOE_Y180_R176C]	0.628
VLTSKHRGGGG [HBA1_Y141_Y141H]	0.751
QTLTDYDTRFY [CSNK2A3_Y131_I133T]	0.757
MKDLTYASLCF [ALOX5_Y446]	0.737
SWSTSYSGFRF [NKAPL_Y91_YF]	1.55
EKRDAYVSCLN [GSR_Y150_R153C]	0.934
ARVANYQRDGP [CAT_Y386]	0.342
GVLKEYGVKVL [CPS1_Y529]	0.688
EADRKYEEVAG [TPM3_Y163_R168G]	0.772
GDAMLYYPSVS [GPR143_Y177_A173D]	0.759
RQNRFYDAKVR [FKBP6_Y188]	0.675
NRKGKYFNVER [ANAPC4_Y469]	0.51
VFAPDFIAGVS [NOB1_Y366_Y366F]	0.727
GIVEDYRPTFF [ACVRL1_Y421_P424T_YF]	0.695
QRIFQYIRSRF [DYRK1B_Y273_Q275R_YF]	0.467

Sequence	SH2 binding enrichment
ILGRFYETGSI [PAX2_Y73_YF]	1.17
GFIISYREEEQ	0.633
IRTIDYRFTVW [IDS_Y497_YF]	0.868
KEAQVYQAFKL [SUCLG2_Y343]	0.616
KDQGIYEDFVE [MYL6_Y86_T85I_YF]	1.07
FSMGCYEISLE [HMGCL_Y198_G203E_YF]	0.7
SRGSSYNSIPK [FLNC_Y2625_S2626N]	0.657
ATHSRYRLNDY [CLDN14_Y233_G232R]	0.563
SIKDKYVTVLF [KCNH2_Y611_A614V_YF]	10.8
ENGPFYASFPP [GDAP2_Y488_T489A_YF]	0.523
ECKLFYSRKEG [PTPN11_Y263_L262F]	0.623
STSKTYVISQT [RBBP6_Y87_R91Q]	0.578
MVSLFYGTAIF [OR10C1_Y251_L255I]	0.756
RLLVVYPSTQR [HBB_Y36_W38S]	2.26
LGRTVYADCLA [ABCA4_Y2063_L2060R]	3.39
VTRKEYFIFLE [CAMKV_Y95]	1.43

Target: Grb2 SH2 (UniProt P62993)
Sequence (P62993 whole entry, looked up): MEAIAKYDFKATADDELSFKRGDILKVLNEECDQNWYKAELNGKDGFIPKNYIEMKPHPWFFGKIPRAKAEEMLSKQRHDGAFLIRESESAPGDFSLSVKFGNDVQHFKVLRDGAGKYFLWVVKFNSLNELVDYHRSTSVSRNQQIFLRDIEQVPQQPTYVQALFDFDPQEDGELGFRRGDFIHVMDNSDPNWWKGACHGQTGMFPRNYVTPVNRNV
Experiment: as above

Sequence	SH2 binding enrichment
SAEKAYHEQLS [TUBA1A_Y282]	0.951
SHISGYATLRR [RAPH1_Y1226]	0.697
KCLAVYQAGAR [APOE_Y180_R176C]	0.841
VLTSKHRGGGG [HBA1_Y141_Y141H]	1.02
QTLTDYDTRFY [CSNK2A3_Y131_I133T]	0.815
MKDLTYASLCF [ALOX5_Y446]	0.912
SWSTSYSGFRF [NKAPL_Y91_YF]	1.13
EKRDAYVSCLN [GSR_Y150_R153C]	1.19
ARVANYQRDGP [CAT_Y386]	0.606
GVLKEYGVKVL [CPS1_Y529]	0.863
EADRKYEEVAG [TPM3_Y163_R168G]	0.93
GDAMLYYPSVS [GPR143_Y177_A173D]	0.825
RQNRFYDAKVR [FKBP6_Y188]	1.02
NRKGKYFNVER [ANAPC4_Y469]	0.498
VFAPDFIAGVS [NOB1_Y366_Y366F]	0.584
GIVEDYRPTFF [ACVRL1_Y421_P424T_YF]	0.846
QRIFQYIRSRF [DYRK1B_Y273_Q275R_YF]	0.765

Sequence	SH2 binding enrichment
ILGRFYETGSI [PAX2_Y73_YF]	0.85
GFIISYREEEQ	0.672
IRTIDYRFTVW [IDS_Y497_YF]	0.923
KEAQVYQAFKL [SUCLG2_Y343]	0.858
KDQGIYEDFVE [MYL6_Y86_T85I_YF]	1.05
FSMGCYEISLE [HMGCL_Y198_G203E_YF]	0.879
SRGSSYNSIPK [FLNC_Y2625_S2626N]	0.818
ATHSRYRLNDY [CLDN14_Y233_G232R]	0.744
SIKDKYVTVLF [KCNH2_Y611_A614V_YF]	1.04
ENGPFYASFPP [GDAP2_Y488_T489A_YF]	0.852
ECKLFYSRKEG [PTPN11_Y263_L262F]	0.746
STSKTYVISQT [RBBP6_Y87_R91Q]	0.827
MVSLFYGTAIF [OR10C1_Y251_L255I]	0.653
RLLVVYPSTQR [HBB_Y36_W38S]	2.08
LGRTVYADCLA [ABCA4_Y2063_L2060R]	1.15
VTRKEYFIFLE [CAMKV_Y95]	1.55

From the supplement of paper PMC10065799, “High-throughput profiling of sequence recognition by tyrosine kinases and SH2 domains using bacterial peptide display” (eLife, 2023)
